What all share (assay type): protein assay
Substrate in series [1]: O=[N+]([O-])c1ccc(O[C@H]2O[C@H](CO)[C@@H](O)[C@H](O)[C@@H]2O)cc1
Nature of the series: (§1) Activity of Bacteroides thetaiotaomicron GH92 alpha-mannosidase GH92 alpha-mannosidase 2199 assessed as mannose release after 16 hrs by HPLC.

Substrate in series [2]: OC[C@H]1O[C@H](O[C@H]2[C@@H](O)[C@H](O)[C@@H](CO)O[C@@H]2O)[C@@H](O)[C@@H](O)[C@@H]1O
Described as §1.

Substrate in series [3]: O=[N+]([O-])c1ccc(O[C@H]2O[C@H](CO)[C@@H](O)[C@H](O)[C@@H]2O)cc1
The series is described as follows: (§2) Ratio of Kcat to Km for Bacteroides thetaiotaomicron GH92 alpha-mannosidase GH92 alpha-mannosidase 2199 assessed as mannose release after 16 hrs by HPLC.

Substrate in series [4]: OC[C@H]1O[C@H](O[C@H]2[C@@H](O)[C@H](O)[C@@H](CO)O[C@@H]2O)[C@@H](O)[C@@H](O)[C@@H]1O
Described as §2.

Substrate in series [5]: O=[N+]([O-])c1ccc(O[C@H]2O[C@H](CO)[C@@H](O)[C@H](O)[C@@H]2O)cc1
The series is described as follows: (§3) Ratio of Kcat to Km for Bacteroides thetaiotaomicron GH92 alpha-mannosidase GH92 alpha-mannosidase 3962 assessed as mannose release after 16 hrs by HPLC.

Substrate in series [6]: OC[C@H]1O[C@H](O[C@H]2[C@@H](O)[C@H](O)[C@@H](CO)O[C@@H]2O)[C@@H](O)[C@@H](O)[C@@H]1O
The description is as §3.

Substrate in series [7]: O=[N+]([O-])c1ccc(O[C@H]2O[C@H](CO)[C@@H](O)[C@H](O)[C@@H]2O)cc1
The series is described as follows: (§4) Activity of Bacteroides thetaiotaomicron GH92 alpha-mannosidase GH92 alpha-mannosidase 3962 assessed as mannose release after 16 hrs by HPLC.

Substrate in series [8]: OC[C@H]1O[C@H](O[C@H]2[C@@H](O)[C@H](O)[C@@H](CO)O[C@@H]2O)[C@@H](O)[C@@H](O)[C@@H]1O
Described as §4.

Substrate in series [9]: O=[N+]([O-])c1ccc(O[C@H]2O[C@H](CO)[C@@H](O)[C@H](O)[C@@H]2O)cc1
The series is described as follows: (§5) Ratio of Kcat to Km for Bacteroides thetaiotaomicron GH92 alpha-mannosidase GH92 alpha-mannosidase 3965 assessed as mannose release after 16 hrs by HPLC.

Substrate in series [10]: OC[C@H]1O[C@H](O[C@H]2[C@H](O)[C@H](O)[C@@H](O)O[C@@H]2CO)[C@@H](O)[C@@H](O)[C@@H]1O
The description is as §5.

Substrate in series [11]: O=[N+]([O-])c1ccc(O[C@H]2O[C@H](CO)[C@@H](O)[C@H](O)[C@@H]2O)cc1
The series is described as follows: (§6) Activity of Bacteroides thetaiotaomicron GH92 alpha-mannosidase GH92 alpha-mannosidase 3965 assessed as mannose release after 16 hrs by HPLC.

Substrate in series [12]: OC[C@H]1O[C@H](O[C@H]2[C@H](O)[C@H](O)[C@@H](O)O[C@@H]2CO)[C@@H](O)[C@@H](O)[C@@H]1O
The series is described as §6.

B1: Alpha-1,2-mannosidase (BT_2199) (Bacteroides thetaiotaomicron), Q8A5N9 (protein)
chain: MVTRLFFLSICFPFLLTSCQQSKKTVEFVDYVNPLMGTESTFAFSHGNTYPAVAVPWGMNFWSPQTGENGSGWMYTYTDSLMRGFRQTHQPSPWINDYGTFSIMPLAGELKMSHKERLVPFSHQQEKATPYNYSVTFNNGLQTSLSATSRGAVFEVSFPEKEDQYVVVDAYNGGSSITIEPEKRLVKGATRYNNGGVPDNFANYFMMEFSHPVIEYGTYNGDTLLHHQTDVAADYTCAYLKFDVPAGEKLTIRTASSFISPEQAAINFNREVADADVQLISGKAREQWNNYLGRVEAEGGTDEQLRTFYSCLYRTLLFPREFYEFDSQGNPVYYSPYDGNVHDGYMYTDNGFWDTFRAVHPLFTLLYPEVSERVTQSIINAYNESGFMPEWASPGHRGCMIGNNSVSLLVDAWMKGIQTVDAEKALEAMIHQTQARHAEIASVGRDGFEYYDKLGYVPYPEVPEATAKTLEYAYADWCIARFAESLGKQDIADQYYQKAPNYRNLYYPEHGFMWTKDAKGNWRDRFDATEWGGPFTEGSSWHWTWSVFHDPEGLSELMGGHEPMIARLDSMFVAPNTYNYGTYGFVIHEIAEMVALNMGQYAHGNQPVQHAIYLYDYIGQPWKTQYHLRNVMDKLYNSGSKGYCGDEDNGQTSAWYVFSAMGFYPVCPGMPEYAIGSPLFKKVTLHLPEGKNFVVSAADNAADRPYIRKALLNGQEFTRNYLTHDELKQGGELNLSMDSVPNQQRGTQPADFPYSYSK
Turning to B1, the Km in series [1] is 7.5 mM. Further, the kcat in series [1] came out at 0.105 s⁻¹; in series [2], 40 s⁻¹. Besides, the kcat/Km was 14 M⁻¹ s⁻¹ in [3] and 60000 M⁻¹ s⁻¹ in [4].

B2: Glycoside hydrolase family 92 (BT_3962) (Bacteroides thetaiotaomicron), Q8A0Q9 (protein)
chain: MNKQKLLSITMTLLLGVSSIFAQKQPVDYVNPLMGTDSKISLSNGNTYPAIALPWGMNFWMPQTGKMGDGWAYTYASDKIRGFKQTHQPSPWINDYGQFSIMPMTKQLKIDQDSRASWFSHKAEKATPYYYSVYLSEYNMTTEIAPTERCAYFRFTFPEASDAYVVVDAFDRGSYVKVIPEENKIVGYTTRNSGGVPQNFRNYFVIEFDKPFTFNKVWADYHLVETHLELQSNHVGAAIGFSTKKGEQVHAKVASSFISPEQAELNLKEIGNKTFEQTKEAGRKAWNDVLGRIKVEDDDENRMRTFYSCLYRSVLFPRMFHEVNAKGETVHYSPYNGEIRPGYMFTDTGFWDTFRCLFPFVNLIYPSMGEKMQEGLLNTYLESGFFPEWASPGHRGCMVGNNSASVVADAFMKNVTKADAEKMYEGLLKGANSVHPRVSTTGRRGYEYYNKLGYVPYDVKINENAARTLEYAYDDWCIYRMGEKLGRPAEELELYKSRSQNYRNLFDPETKLMRGKNADGTFQTPFNPFKWGDAFTEGNSWHYTWSVFHDVQGLADLMGGRKMFVSMLDSVFNLPPIFDDSYYGGVIHEIREMEIANMGNYAHGNQPIQHMIYLYNYAGEPWKAQYWLREVMNRLYFATPDGYCGDEDNGQTSAWYVFTALGFYPVCPGSNEYVMGAPYFKKATITLENGKKLEISAPKNSDANRYIRSLNYNGKNYTKNYLNHFDLLKGGRLVFDMDNKPNKGRGINESDFPYSFSRDNK
Turning to B2, the kcat/Km in [5] is 56.7 M⁻¹ s⁻¹; in series [6] it was 31700 M⁻¹ s⁻¹. Besides, the Km in [7] amounted to 5 mM; in [8] it was 0.43 mM. In addition, the kcat worked out at 0.283 s⁻¹ in [7] and 13.7 s⁻¹ in [8].

B3: Alpha-1,2-mannosidase (BT_3965) (Bacteroides thetaiotaomicron), Q8A0Q6 (protein)
chain: MAQTEKLTDYVNPFVGTDGYGNVYPGAQIPFGGIQISPDTDSRFYDAASGYKYNHLTLMGFSLTHLSGTGIPDLGDFLFIPGTGEMKLEPGTHEDPDQGYRSRYSHDKEWASPNYYAVELADYGVKAEMTSGVRSGMFRFTYPESDNAFIMIDMNHTLWQSCEWSNLRMINDSTITGYKLVKGWGPERHVYFTATFSKKLTGLRFVQDKKPVIYNTSRFRSSYEAWGKNLMACISFDTKAGEEVTVKTAISAVSTDGARNNMKELDGLTFNELRAKGEALWEKELGKYTLTADRKTKETFYTSAYHAALHPFIFQDSDGQFRGLDKNIEKAEGFTNYTVFSLWDTYRALHPWFNLVQQEVNADIANSMLAHYDKSVEKMLPIWSFYGNETWCMIGYHAVSVLADMIVKEVKGFDYERAYEAMKTTAMNSNYDCLPEYREMGYVPFDKEAESVSKTLEYAYDDYCIAQAAKKLGKEDDYHYFLNRALSYQTLIDPETKYMRGRDSKGDWRTPFTPVAYQGPGSVHGWGDITEGFTMQYTWYVPQDVQGYINEAGKELFRKRLDELFTVELPDDIPGAHDIQGRIGAYWHGNEPCHHVAYLYNYLKEPWKCQKWIRTIVDRFYGNTPDALSGNDDCGQMSAWYMFNCIGFYPVAPSSNIYNIGSPCAEAITVRMSNGKNIEMTADNWSPKNLYVKELYVNGKKYDKSYLTYDDIRDGVKLRFVMSGKPNYKRAVSDEAVPPSISLPEKTMKYKSSIGF
Turning to B3, the figures for the kcat/Km in series [9] and in series [10] were 233 M⁻¹ s⁻¹ and 183 M⁻¹ s⁻¹, respectively. Also, the results for the Km in series [11] and in series [12] were 1 mM and 8 mM, respectively. Moreover, the results for the kcat in [11] and in series [12] were 0.233 s⁻¹ and 1.48 s⁻¹, respectively.

For the origin of these results see ChEMBL document CHEMBL1250451, “Mechanistic insights into a Ca2+-dependent family of alpha-mannosidases in a human gut symbiont” (Nat Chem Biol, 2010).
